Experimental data published in patent publication US10487147B2, “Anti-PD-L1 antibodies and uses thereof” (Merck Patent GmbH, priority 2011, dated 2019).

Columns and labels:
[1] = Fluorescence monitored thermal unfolding assay of wild type and mutant PD-L1 proteins; format: physicochemical; settings: temperature midpoint of fluorescently monitored thermal denaturation of the PD-L1 antigen protein
Text: As the temperature increases, thermal denaturation of the protein exposes the hydrophobic core residues and this can be monitored by an increase in fluorescence of the dye. […] The data ware fit to equation 1 (adapted from Bullock, A. N. et al. Thermodynamic stability of wild-type and mutant p53 core domain. PNAS 94, 14338-14342 (1997)) to determine the temperature at the inflection point of the curve (T1/2).

[2] = Analytical size exclusion chromatography of wild type and mutant PD-L1 proteins; format: physicochemical; settings: qualitative appearance of the PD-L1 antigen protein on size exclusion chromatography
PANC02 cells = experiment: Combination with Gemcitabine in the PANC02 orthotopic model; settings: GEM 150 mg/kg or A09-246-2 400 μg per mouse alone
[3] = test system: MC38 colon carcinoma cells; experiment: Combination with low dose cyclophosphamide in MC38 subcutaneous tumor model; format: in vivo, mice; settings: CPA 100 mg/kg or A09-246-2 100 μg
Experimental: Low-dose CPA is known to enhance anti-tumor immune responses through the inhibition of immunosuppressive regulatory T cells. […] Mice were inoculated […] in the right flank with 1×10^6 MC38 colon carcinoma cells. When tumors reached a mean volume of ˜50 mm^3, mice were sorted into treatment groups (N=14) on day 0. […] Using an ELISPOT assay, the effects of treatment on the magnitude of CD8^+ T cell responses directed against the well-characterized p15E tumor antigen were measured.

| Compound | T1/2 [1] | further results |
| --- | --- | --- |
| A51Q: PD-L1 point mutant antigen expressed in HEK cells [Antibody A51Q] | 57.3 +/− 0.6 °C |  |
| S117A: PD-L1 point mutant antigen expressed in HEK cells [Antibody S117A] | 52.7 +/− 0.3 °C |  |
| T127A: PD-L1 point mutant antigen expressed in HEK cells [Antibody T127A] | 51.4 +/− 0.0 °C |  |
| Y56A: PD-L1 point mutant antigen expressed in HEK cells [Antibody Y56A] | 57.5 +/− 0.7 °C |  |
| K124A: PD-L1 point mutant antigen expressed in HEK cells [Antibody K124A] | 53.1 +/− 0.6 °C |  |
| S80E: PD-L1 point mutant antigen expressed in HEK cells [Antibody S80E] | 56.8 +/− 4.5 °C |  |
| K46A: PD-L1 point mutant antigen expressed in HEK cells [Antibody K46A] | 51.6 °C |  |
| A52R: PD-L1 point mutant antigen expressed in HEK cells [Antibody A52R] | 55.2 °C |  |
| K75A: PD-L1 point mutant antigen expressed in HEK cells [Antibody K75A] | 57.7 +/− 1.8 °C |  |
| A109E: PD-L1 point mutant antigen expressed in HEK cells [Antibody A109E] | 54.0 °C |  |
| V68R: PD-L1 point mutant antigen expressed in HEK cells [Antibody V68R] | 56.0 °C | SEC [2]: M/T |
| I54K: PD-L1 point mutant antigen expressed in HEK cells [Antibody I54K] | 57.2 °C |  |
| Nc1ccn([C@@H]2O[C@H](CO)[C@@H](O)C2(F)F)c(=O)n1 [GEM, Gemcitabine] |  | survival time, monotherapy (PANC02 cells): failed to extend survival time |
| V76A: PD-L1 point mutant antigen expressed in HEK cells [Antibody V76A] | 55.7 °C |  |
| E45A: PD-L1 point mutant antigen expressed in HEK cells [Antibody E45A] | 58.0 °C |  |
| D49A: PD-L1 point mutant antigen expressed in HEK cells [Antibody D49A] | BP (>49) ° C. |  |
| R113A: PD-L1 point mutant antigen expressed in HEK cells [Antibody R113A] | 56.7 °C |  |
| D61A: PD-L1 point mutant antigen expressed in HEK cells [Antibody D61A] | 52.0 °C |  |
| R125A: PD-L1 point mutant antigen expressed in HEK cells [Antibody R125A] | 51.8 +/− 0.2 °C |  |
| A121R: PD-L1 point mutant antigen expressed in HEK cells [Antibody A121R] | 54.0 +/− 0.5 °C |  |
| O=P1(N(CCCl)CCCl)NCCCO1 (centres unmarked) [CPA, cyclophosphamide] |  | p15E-reactive CD8+ T cells (ELISPOT), single agent [3]: ~100 spots |

| Compound | T1/2 [1] | further results |
| --- | --- | --- |
| E71A: PD-L1 point mutant antigen expressed in HEK cells [Antibody E71A] | 52.8 +/− 1.5 °C |  |
| Y56K: PD-L1 point mutant antigen expressed in HEK cells [Antibody Y56K] | 55.4 +/− 1.3 °C |  |
| R82A: PD-L1 point mutant antigen expressed in HEK cells [Antibody R82A] | 51.2 +/− 0.4 °C |  |
| H78A: PD-L1 point mutant antigen expressed in HEK cells [Antibody H78A] | 56.6 +/− 0.6 °C |  |
| V111E: PD-L1 point mutant antigen expressed in HEK cells [Antibody V111E] | 51.6 +/− 0.0 °C |  |
| D73A: PD-L1 point mutant antigen expressed in HEK cells [Antibody D73A] | 53.5 +/− 2.1 °C |  |
| K105A: PD-L1 point mutant antigen expressed in HEK cells [Antibody K105A] | 57.0 +/− 1.5 °C |  |
| S79A: PD-L1 point mutant antigen expressed in HEK cells [Antibody S79A] | 56.3 +/− 0.9 °C |  |
| T127K: PD-L1 point mutant antigen expressed in HEK cells [Antibody T127K] | 54.0 °C |  |
| V111A: PD-L1 point mutant antigen expressed in HEK cells [Antibody V111A] | 50.2 +/− 0.2 °C |  |
| S80A: PD-L1 point mutant antigen expressed in HEK cells [Antibody S80A] | 57.0 °C |  |
| D26A: PD-L1 point mutant antigen expressed in HEK cells [Antibody D26A] | 52.8 +/− 0.2 °C |  |
| Q107A: PD-L1 point mutant antigen expressed in HEK cells [Antibody Q107A] | 58.6 +/− 2.0 °C | SEC [2]: M/T |
| T20A: PD-L1 point mutant antigen expressed in HEK cells [Antibody T20A] | 52.5 +/− 0.2 °C |  |
| M115A: PD-L1 point mutant antigen expressed in HEK cells [Antibody M115A] | 51.4 +/− 0.1 °C |  |
| K129A: PD-L1 point mutant antigen expressed in HEK cells [Antibody K129A] | 50.8 +/− 1.2 °C |  |
| L27A: PD-L1 point mutant antigen expressed in HEK cells [Antibody L27A] | 51.7 +/− 0.5 °C |  |
| S79E: PD-L1 point mutant antigen expressed in HEK cells [Antibody S79E] | 60.0 °C |  |
| E58A: PD-L1 point mutant antigen expressed in HEK cells [Antibody E58A] | 54.6 +/− 0.6 °C |  |
| E60A: PD-L1 point mutant antigen expressed in HEK cells [Antibody E60A] | 50.4 °C |  |
| I54A: PD-L1 point mutant antigen expressed in HEK cells [Antibody I54A] | 57.2 +/− 2.5 °C |  |
